Measured values: patent US20170037111A1, “Novel peptides and combination of peptides for use in immunotherapy against ovarian cancer and other cancers” (immatics biotechnologies GmbH, priority 2015, published 2017)

Biological target: HLA-A*02:01 (Homo sapiens, UniProt P04439, D140Y/D185E/D98H/E176V/E277Q/G131W/G231S/I119V/I121R/I166T/I218V/L300P/L318F/N151K/N90K/P208A/P217A/Q86G/Q94H/R138H/R169H/T345S)
Experiment: MHC binding assay (UV-ligand exchange, β2m ELISA, peptide exchange yield)
Details: MHC class I binding score; binding to HLA-A*02:01 ranged by peptide exchange yield (UV-ligand exchange, β2m ELISA)
From the text: Candidate peptides for T cell based therapies according to the present invention were further tested for their MHC binding capacity (affinity). The individual peptide-MHC complexes were produced by UV-ligand exchange, where a UV-sensitive peptide is cleaved upon UV-irradiation, and exchanged with the peptide of interest as analyzed. Only peptide candidates that can effectively bind and stabilize the peptide-receptive MHC molecules prevent dissociation of the MHC complexes. To determine the yield of the exchange reaction, an ELISA was performed based on the detection of the light chain (β2m) of stabilized MHC complexes. The assay was performed as generally described in Rodenko et al. (Rodenko et al., 2006).
96 well MAXISorp plates (NUNC) were coated over night with 2 ug/ml streptavidin in PBS at room temperature, washed 4× and blocked for 1h at 37° C. in 2% BSA containing blocking buffer. […] Peptide-MHC monomers of the UV-exchange reaction were diluted 100 fold in blocking buffer. Samples were incubated for 1h at 37° C., washed four times, incubated with 2 ug/ml HRP conjugated anti-β2m for 1h at 37° C., washed again and detected with TMB solution that is stopped with […]. Absorption was measured at 450 nm. Candidate peptides that show a high exchange yield (preferably higher than 50%, most preferred higher than 75%) are generally preferred for a generation and production of antibodies or fragments thereof, and/or T cell receptors or fragments thereof, as they show sufficient avidity to the MHC molecules and prevent dissociation of the MHC complexes.

Row | Substance | Peptide exchange
1 | 94 (YLIDIKTIAI; listed as Homo sapiens) [compound 94] | ″++″ (≧20% = ++)
2 | 95 (SVIPQIQKV; listed as Homo sapiens) [compound 95] | ″+++″ (≧50% = +++)
3 | 96 (YIFTDNPAAV; listed as Homo sapiens) [compound 96] | ″+++″ (≧50% = +++)
4 | 97 (SLINGSFLV; listed as Homo sapiens) [compound 97] | ″+++″ (≧50% = +++)
5 | 98 (LIIDQADIYL; listed as Homo sapiens) [compound 98] | ″+++″ (≧50% = +++)
6 | 99 (ALVSKGLATV; listed as Homo sapiens) [compound 99] | ″++″ (≧20% = ++)
7 | 100 (YLLSTNAQL; listed as Homo sapiens) [compound 100] | ″++++″ (≧75% = ++++)
8 | 101 (ILVGGGALATV; listed as Homo sapiens) [compound 101] | ″+++″ (≧50% = +++)
9 | 102 (YLFESEGLVL; listed as Homo sapiens) [compound 102] | ″+++″ (≧50% = +++)
10 | 103 (TLAEEVVAL; listed as Homo sapiens) [compound 103] | ″+++″ (≧50% = +++)
11 | 104 (STMEQNFLL; listed as Homo sapiens) [compound 104] | ″++++″ (≧75% = ++++)
12 | 106 (LLYDAVHIVSV; listed as Homo sapiens) [compound 106] | ″+++″ (≧50% = +++)
13 | 107 (FLQPVDDTQHL; listed as Homo sapiens) [compound 107] | ″+++″ (≧50% = +++)
14 | 109 (IILSILEQA; listed as Homo sapiens) [compound 109] | ″++++″ (≧75% = ++++)
15 | 110 (FLSQVDFEL; listed as Homo sapiens) [compound 110] | ″+++″ (≧50% = +++)
16 | 111 (YVWGFYPAEV; listed as Homo sapiens) [compound 111] | ″+++″ (≧50% = +++)

Row | Substance | Peptide exchange
17 | 114 (SLVGEPILQNV; listed as Homo sapiens) [compound 114] | ″++″ (≧20% = ++)
18 | 115 (AIAGAGILYGV; listed as Homo sapiens) [compound 115] | ″++″ (≧20% = ++)
19 | 116 (YHIDEEVGF; listed as Homo sapiens) [compound 116] | ″+″ (≧10% = +)
20 | 117 (ILPDGEDFLAV; listed as Homo sapiens) [compound 117] | ″+++″ (≧50% = +++)
21 | 119 (FLYIGDIVSL; listed as Homo sapiens) [compound 119] | ″++++″ (≧75% = ++++)
22 | 120 (ALLGIPLTLV; listed as Homo sapiens) [compound 120] | ″+++″ (≧50% = +++)
23 | 121 (GVVDPRAISVL; listed as Homo sapiens) [compound 121] | ″++″ (≧20% = ++)
24 | 122 (FLLAEDDIYL; listed as Homo sapiens) [compound 122] | ″+++″ (≧50% = +++)
25 | 123 (NLWDLTDASVV; listed as Homo sapiens) [compound 123] | ″+++″ (≧50% = +++)
26 | 124 (ALYETELADA; listed as Homo sapiens) [compound 124] | ″++″ (≧20% = ++)
27 | 125 (VQIHQVAQV; listed as Homo sapiens) [compound 125] | ″+++″ (≧50% = +++)
28 | 126 (VLAYFLPEA; listed as Homo sapiens) [compound 126] | ″++++″ (≧75% = ++++)
29 | 127 (KIGDEPPKV; listed as Homo sapiens) [compound 127] | ″++″ (≧20% = ++)
30 | 128 (YLFDDPLSAV; listed as Homo sapiens) [compound 128] | ″++″ (≧20% = ++)
31 | 129 (GLLDGGVDILL; listed as Homo sapiens) [compound 129] | ″+++″ (≧50% = +++)
32 | 130 (FLWNGEDSALL; listed as Homo sapiens) [compound 130] | ″+++″ (≧50% = +++)
